In publication PMC3916286, “NSUN4 Is a Dual Function Mitochondrial Protein Required for Both Methylation of 12S rRNA and Coordination of Mitoribosomal Assembly”:

Molecular target: NSUN4 (Homo sapiens, UniProt Q96CB9 26-384)
Assay: EMSA; NSUN4 without MTERF4; protein 0-2.56 uM; EMSA with 40 ng RNA and 0-2.56 uM protein, essentially as in cited ref 15; buffer, salt, pH and temperature not given
Conditions: protein: recombinant; single strand folded, closed by added GGG/CCC

Chain of NSUN4 (Q96CB9 26-384): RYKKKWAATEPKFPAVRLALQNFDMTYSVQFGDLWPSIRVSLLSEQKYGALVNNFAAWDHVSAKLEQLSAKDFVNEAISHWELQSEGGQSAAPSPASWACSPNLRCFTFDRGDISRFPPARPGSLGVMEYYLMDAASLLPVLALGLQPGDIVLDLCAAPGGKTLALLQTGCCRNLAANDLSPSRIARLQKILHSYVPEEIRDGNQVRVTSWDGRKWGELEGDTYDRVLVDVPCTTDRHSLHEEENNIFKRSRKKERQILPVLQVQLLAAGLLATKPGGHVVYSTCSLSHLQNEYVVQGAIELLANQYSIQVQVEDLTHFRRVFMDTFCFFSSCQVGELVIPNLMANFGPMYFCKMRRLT

B1: ds12S:878-949 (structured_RNA)
RNA: GGGGUUGAACAGGGCCCUGAAGCGCGUACACACCGCCCGUCACCCUCCUCAAGUAUACUUCAAAGGACAUUUAACCCC
  binding result: binds
